Results reported in the DeepSol protein solubility set.

Assay: soluble on expression in E. coli; label from the status in PepcDB or PDB records

Sequence | soluble on expression in E. coli
VTNSTDGRADGRLRVVVLGSTGSIGTQALQVIADNPDRFEVVGLAAGGAHLDTLLRQRAQTGVTNIAVADEHAAQRVGDIPYHGSDAATRLVEQTEADVVLNALVGALGLRPTLAALKTGARLALANKESLVAGGSLVLRAARPGQIVPVDSEHSALAQCLRGGTPDEVAKLVLTASGGPFRGWSAADLEHVTPEQAGAHPTWSMGPMNTLNSASLVNKGLEVIETHLLFGIPYDRIDVVVHPQSIIHSMVTFIDGSTIAQASPPDMKLPISLALGWPRRVSGAAAACDFHTASSWEFEPLDTDVFPAVELARQAGVAGGCMTAVYNAANEEAAAAFLAGRIGFPAIVGIIADVLHAADQWAVEPATVDDVLDAQRWARERAQRAVSGMASVAIASTAKPGAAGRHASTLERS | soluble
MEYCRLDGDTGRLRTEIKHPRLLLFNPGHEMVPEIIGKKPYVPPPVVRSMMRDLGLLPAWLTKSEQDFVFCPEKTLPIPDTHPLKPEARLLQIPDTALPLNDYTLDMWGQSPVWLAALQHRFLWLSTVSAPYYPHELYERSHRCEAARCLEAIGHSEMAAHWFTSINDFLKERYHCFPPDSALLAKLPSSSSGRGLIWLSSSPTDDEIDLLTKALRRAGSFSVEPVLDVRQDWAAEFYSNGKGELYFVGWSRFDTNRWGAYLGNRLATQTDLVAELTQTVGAQAHEEAIASVKDYLRER | not soluble
MWLYYLQVVMDMRVYVEGYGCVLNTADTEIIKNSLKKHGFEVVNNLEEADIAIINTCVVRLETENRMIYRINELKNLGKEVVVAGCLPKALKNKVKGFLHIYPREAHKAGEILKNYVEKHYRMPYIEEDINKTLYKKLDYLKPSLITPLPICEGCIGNCSYCIVKIARGGLISYPREKIVNKAKELINKGAKCLLITAQDTACYGFDIGDNLANLLNELTQIKGEFIMRVGMMHAKNAELILDELIEVYQNEKVGKFLHLPLQSGDDEILKRMKRGYTVDEFKDIVNEFRRKIKNLCFTTDIIVGFPGETEEQFQNTLEVLRELKPDYIHGAKYSQRKGTEAAKMKQIDTKIRKRRSEILDKLRRELSYLNNKKYIGKAMKVLVLDEGKGYTDNFKVVKFEGGEVGEFRKVKITDAKTFGLKGELILLEHHHHHH | soluble
MGSDKIHHHHHHMAINTTPLSESSKNNPDKQNNFVIALAGNPNVGKSTVFNRLTGLKQHTGNWPGKTVIKAEGTFSHRNRHYTLVDLPGTYSLHASSSDEEVARNFICFSRPDITLVVCDATCLERNLNLVLQILEITDRVLVCVNLLDEAERKGIQVDIAMLARQLGIPVVGTAARSGRGLESLKNVLDDMLAGKIAIQPRQLVYDPELEASINRIEKRLAPYLPAWINSRWVTLRVLERDFSILEHISNHKNNDFPRQVLKEEVALCLR | not soluble
GSIPGLERALQQYTLEPSEKPFDLKSVPLATAPLAEQRTESTPVTAAKQPEKVAATRQEIFQEQLAAVPEFQGLGPLFKSSPEPVALTESETEYVIRCTKHTFTDHMVFQFDCTNTLNDQTLENVTVQMEPSEAYEVLCYVPARSLPYNQPGTCYTLVALPKEDPTAVACTFSCVMKFTVKDCDPTTGEADDEGYEDEYVLEDLEVTIADHIQKVMKLNFEAAWDEVGDEFQKEETFTLSTIKTLEEAVGNIVKFLGMHPCERSDKVPDNKNTHTLLLAGVFRGGHDILVRSRLLLLDTVTMQVTARSSEELPVDIVLASVG | soluble
MGSDKIHHHHHHMIDKLEFFLALARERHFGRAAEECGVTQPTLSAAIRQLEEQLGVILVNRGSRFQGLTPEGQRVLEWARRIVSDSRTMREEMRAARKGLSGHMRLAAVPTTLSMVPLITAPFQEKHPDVTFSVLSTTSLQILALLENLEIDAGLTYLENEPLGRVTSVPLQIEQYHLVTAAGTALSDRESVTWKEVSDIRLCLLTADMQNRRIINQHFAEAGAVPKPTLESNSMIVLFSHVRTGRWASIMPYNVAKSFGFHEDIRMIPIVDPDVRHTVGLVATYREPFTPLVSALLHEARILGERNQVQ | not soluble
MRLSDYNTPLSGMLAAQMGLQTTKQNLSNIHTPGYVRQMVNYESAGGSKGYAPEQRIGYGVQTLGVDRITDEVKTKQYNDQMSQFSYYAYMNSTLSRVESMVGTTGKNSLSSLMDGFFNAFREVAKNPEQSNYYDTLIAETGKFTSQVSRLAKNLDTVEAQTTEDIEAHVNEFNRLAASLAEANKKIGQAGTQVPNQLLDERDRIMTEMSKYADIEVSYEATNPNIASVRMNGVLTVNGQDTYPLQLQKDKKPMSVQISGTDIPLSGGTILSAIDTKAKITNYKDNLNEFVNSLKKQVNNTMKKELFVGEDAKKLELNPDFIKDISKMKISAETANNLAAITDKGYKDGLTYKQALDQFLVGVASDKSSVNAYQNIHKDLLEGIQQEKMSIEGVNMEEEMVNLMAFQKYFVANSKAITTMNEVFDSLFSIIR | not soluble
MGRIYLKKAKSEEDLLKRGRPFTVEVDELKIPFCVSPVTNTFDNKKKVFLTFLGPVKQFHEAIHLCITSLYRPTPYNKYELTTNVDDLTCTPDIKNMKESYLATIKSESLNASTIDNFLSKKTSIEKLTLGMKVLDNFQEDSAIFRMKYFWFTYSLEHAPIVLSKFQGTHLWMTDANIKNEDIISFLNTWQNSECDRKIFEIKVSEGMNPLNPDIVYEDIDVSDWDPAERPKEFNFVSTFFPENFNKVYDCSTWMDIKRSGDGKIASICITSNAFKFLVWD | not soluble
MHHHHHHHHHGGPISKILVANRSEIAIRVFRAANELGIKTVAIWAEEDKLALHRFKADESYQVGRGPHLARDLGPIESYLSIDEVIRVAKLSGADAIHPGYGLLSESPEFVDACNKAGIIFIGPKADTMRQLGNKVAARNLAISVGVPVVPATEPLPDDMAEVAKMAAAIGYPVMLKASWGGGGRGMRVIRSEADLAKEVTEAKREAMAAFGKDEVYLEKLVERARHVESQILGDTHGNVVHLFERDCSVQRRNQKVVERAPAPYLSEAQRQELAAYSLKIAGATNYIGAGTVEYLMDADTGKFYFIEVNPRIQVEHTVTEVVTGIDIVKAQIHILDGAAIGTPQSGVPNQEDIRLNGHALQCRVTTEDPEHNFIPDYGRITAYRSASGFGIRLDGGTSYSGAIITRYYDPLLVKVTAWAPNPLEAISRMDRALREFRIRGVATNLTFLEAIIGHPKFRDNSYTTRFIDTTPELFQQVKRQDRATKLLTYLADVTVNGHPEAKDRPKPLENAARPVVPYANGNGVKDGTKQLLDTLGPKKFGEWMRNEKRVLLTDTTMRDGHQSLLATRMRTYDIARIAGTYSHALPNLLSLECWGGATFDVSMRFLTEDPWERLALIREGAPNLLLQMLLRGANGVGYTNYPDNVVKYFVRQAAKGGIDLFRVFDCLNWVENMRVSMDAIAEENKLCEAAICYTGDILNSARPKYDLKYYTNLAVELEKAGAHIIAVKDMAGLLKPAAAKVLFKALREATGLPIHFHTHDTSGIAAATVLAAVEAGVDAVDAAMDALSGNTSQPCLGSIVEALSGSERDPGLDPAWIRRISFYWEAVRNQYAAFESDLKGPASEVYLHEMPGGQFTNLKEQARSLGLETRWHQVAQAYADANQMFGDIVKVTPSSKVVGDMALMMVSQDLTVADVVSPDREVSFPESVVSMLKGDLGQPPSGWPEALQKKALKGEKPYTVRPGSLLKEADLDAERKVIEKKLEREVSDFEFASYLMYPKVFTDFALASDTYGPVSVLPTPAYFYGLADGEELFADIEKGKTLVIVNQAVSATDSQGMVTVFFELNGQPRRIKVPDRAHGATGAAVRRKAEPGNAAHVGAPMPGVISRVFVSSGQAVNAGDVLVSIEAMKMETAIHAEKDGTIAEVLVKAGDQIDAKDLLAVYGG | soluble
MNSRQQSILQMVVDKGQMSVAELAKITGVSEVTIRQDLNTLEKQSYLRRAHGFAVSLESDDVETRMMTNYTLKRRLAEFAASLVSPGESVFIENGSSNALLARTLAEQKDVTIITVSSYIAHLLKETPCEVILLGGIYQKKSESMVGPLTRQFIHQVHFSKAFIGIDGWQADTGFTGRDMMRSDVVNAVLEKGSEAIVLTDSSKFGCVHPYPLGPLSRFHRVITDSKISASDQMQLEHAGLLVNVIGSSV | not soluble
SAMRQTPLTCSGHTRPVVDLAFSGITPYGYFLISACKDGKPMLRQGDTGDWIGTFLGHKGAVWGATLNTEATKAATAAADFTAKVWDAVTGDEVLTLAHKHIVKSVNFTQDSNYLLTGGNDKVLRIYDLSKPEAEPQEIAGHTSAIKKALWCNNDQQILSAADDKTIRLWDKNTNEAVKTLSFDASVSSMEYIPDGETLVITYGRTIAFYNAHSLDLIKTVDAPASIHSASLHPDKDFFVAGGDDFKLYKYDYTTKEEMESYKGHFGPVHCVRFSPDGELYASGSEDGTLRLWQTAVGKTYGLWKCVLPEELSSENSEALYCPPAEIKA | soluble
MSITSPVSNTWAPTVKGPHGTQSKIDTKSLSPNLSRAELRKQVRLARRSLSTEVQAEASINACERMLKKLMAMNAQHVALYLTHDGELATAPLIAALWQRGIQTYLPRLHPFNAGQLLFLHYHADSPMQPNQYGILEPKLDVRSVMPIERLDVVVTPLVAFDIKGNRMGMGGGYYDRTLANWQDNGKPLPMGYAHDCQQVPSLPCEHWDVPLPAIITPSRVWEFLEHHHHHH | soluble
GPLGSMASATLGSSSSSASPAVAELCQNTPETFLEASKLLLTYADNILRNPSDEKYRSIRIGNTAFSTRLLPVRGAVECLFEMGFEEGETHLIFPKKASVEQLQKIRDLIAIERSSRLDGSSKK | soluble
MGSDKIHHHHHHMQAAWLLGALVVPQLLSFGHGARGPGREWEGGWGGALEEERERESQMLKNLQEALGLPTGVGNEDNLAENPEDKEVWETTETQGEEEEEEITTAPSSSPNPFPSPSPTPEDTVTYILGRLASLDAGLHQLHVRLHVLDTRVVELTQGLRQLRDAASDTRDSVQALKEVQDRAEQEHGRLEGCLKGLRLGHKCFLLSRDFETQAAAQARCKARGGSLAQPADRQQMDALSRYLRAALAPYNWPVWLGVHDRRSEGLYLFENGQRVSFFAWHRAFSLESGAQPSAATHPLSPDQPNGGVLENCVAQASDDGSWWDHDCERRLYFVCEFPF | not soluble
MKMNNTKEYSIRTPSLGNLPPGTTGTCCPPPLVFPLLPLSPPPSPPPSPSSPPRLPPPFPALFPPEPPLPPRFELPPPLFPPPPLPRLPPPLLPPPEEPPREPPPPPPPPEEPPPPASCLRTKSPENGIVSTVK | not soluble
MGSDKIHHHHHHMTSALSEAGGYPPEGQGAYFLCDIFDAMPKNDLASMEHPLFSLSTRPDRRILNYEHNGAEITVTPSVKGLATIHDKDILIFCVSQLMAALNAGRQVSRVLHLTAHDLLVACNRETSGDAYRRLRESFERLAGTRITTNITTGGQEITTGFGLIESWEIVRKARGGRMVSVAVTLSDWLYRAVLSKSVLTLSRDYFRLRKPLERRIYELARKHCGRQDSWQISVETLLKKSGSASPRRVFRKMVRDMIESQPLPDYEMAELEGDIIRFSQKAAVVDVPPPVISEAARDEARRLMPGVDVHALEADWRATWARTGAPRLRKPDAAFVGWVRKRMND | not soluble
SLVMKASVDDDDSGWELSMPEKMEKSNTNWVDITQDFEEACRELKLGELLHDKLFGLFEAMSAIEMMDPKMDAGMIGNQVNRKVLNFEQAIKDGTIKIKDLTLPELIGIMDTCFCCLITWLEGHSLAQTVFTCLYIHNPDFIEDPAMKAFALGILKICDIAREKVNKAAVFEEEDFQSMTYGFKMANSVTDLRVTGMLKDVEDDMQRRVKSTRSRQGEERDPEVELEHQQCLAVFSRVKFTRVLLTVLIAFTKKETSAVAEAQKLMVQAADLLSAIHNSLHHGIQAQNDTT | soluble
